Publication PMC3046150

What was measured:
[1] = biological target: human TrkA on BALB/C 3T3-hTrkA cells (human) (UniProt P04629)
[2] = biological target: p75 neurotrophin receptor (p75NTR), endogenous on rat cells (rat (endogenous in rat oligodendrocyte progenitor cells)) (UniProt P07174)
Chain of UniProt P07174 (P07174 30-425): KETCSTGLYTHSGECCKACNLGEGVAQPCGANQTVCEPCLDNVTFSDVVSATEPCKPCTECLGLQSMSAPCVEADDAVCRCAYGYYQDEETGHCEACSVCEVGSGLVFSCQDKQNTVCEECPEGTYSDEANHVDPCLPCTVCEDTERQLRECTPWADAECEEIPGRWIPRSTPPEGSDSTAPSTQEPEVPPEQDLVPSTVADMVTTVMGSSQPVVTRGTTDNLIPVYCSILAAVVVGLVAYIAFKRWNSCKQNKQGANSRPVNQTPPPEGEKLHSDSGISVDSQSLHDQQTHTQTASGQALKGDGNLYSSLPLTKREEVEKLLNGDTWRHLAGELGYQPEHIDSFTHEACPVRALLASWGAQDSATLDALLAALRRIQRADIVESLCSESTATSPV

Chain of UniProt P04629 (P04629 33-796): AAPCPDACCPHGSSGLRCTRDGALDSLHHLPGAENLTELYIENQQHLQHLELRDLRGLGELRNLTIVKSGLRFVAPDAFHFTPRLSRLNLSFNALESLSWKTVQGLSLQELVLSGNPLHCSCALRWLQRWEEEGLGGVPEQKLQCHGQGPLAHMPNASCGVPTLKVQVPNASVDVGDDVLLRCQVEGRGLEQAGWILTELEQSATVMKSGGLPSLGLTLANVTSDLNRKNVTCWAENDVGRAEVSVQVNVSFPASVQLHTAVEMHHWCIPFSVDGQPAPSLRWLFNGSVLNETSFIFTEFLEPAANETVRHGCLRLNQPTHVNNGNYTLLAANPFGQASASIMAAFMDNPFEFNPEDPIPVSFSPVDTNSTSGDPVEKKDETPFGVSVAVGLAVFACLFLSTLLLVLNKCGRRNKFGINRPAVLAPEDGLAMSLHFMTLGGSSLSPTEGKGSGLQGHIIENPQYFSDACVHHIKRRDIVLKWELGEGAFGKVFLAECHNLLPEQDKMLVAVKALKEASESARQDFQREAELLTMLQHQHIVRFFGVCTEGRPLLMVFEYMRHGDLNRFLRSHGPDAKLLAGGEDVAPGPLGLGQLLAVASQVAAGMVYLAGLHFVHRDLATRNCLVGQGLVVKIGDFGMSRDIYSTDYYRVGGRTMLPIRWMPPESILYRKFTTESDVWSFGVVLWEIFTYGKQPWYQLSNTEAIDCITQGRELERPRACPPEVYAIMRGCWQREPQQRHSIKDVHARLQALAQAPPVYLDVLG

phosphorylation of TrkA residue Tyr490 in BALB/C 3T3-hTrkA cells, 100 ng/ml, Western blot with site-specific anti-phosphoTrkA antibody (% reduction against hNGF) [1]	phosphorylation of c-jun at Ser63 in hippocampal cells (p75NTR dependent activation of the jnk kinase), 100 ng/ml (% reduction against hNGF) [2]	Substance
70	30	hNGFR100E, mature human NGF with the substitution R100E (from UniProt P01138 122-241) (ligand)
70		hNGFR100W, mature human NGF with the HSAN V substitution R100W (from UniProt P01138 122-241) (ligand)
